Assay results from patent publication US9988424 (DUKE UNIVERSITY, dated 2018).
Positions count from the first letter of the chain named. Where two headings read alike, the source gives them in different places.

What was measured:
AE.A244 V1V2 Tags [1] = target: AE.A244 V1V2 Tags (HIV-1); experiment: ELISA
C.1086 V1V2 Tags [2] = target: C.1086 V1V2 Tags (HIV-1); experiment: ELISA
AE.A244 gp120 delta 11 [3] = target: T1, AE.A244 gp120 delta 11 (HIV-1); experiment: ELISA
T1 construct: also called E.A244gp120Δ11; AE.A244 Δ11 gp120

gp70 C.1086 V1/V2 [4] = target: T2, gp70 C.1086 V1/V2 (HIV-1 V1V2 on murine leukemia virus gp70); experiment: ELISA
T2 construct: also called C.gp70 1086C V1V2; C.1086gp70V1V2
T2 chain: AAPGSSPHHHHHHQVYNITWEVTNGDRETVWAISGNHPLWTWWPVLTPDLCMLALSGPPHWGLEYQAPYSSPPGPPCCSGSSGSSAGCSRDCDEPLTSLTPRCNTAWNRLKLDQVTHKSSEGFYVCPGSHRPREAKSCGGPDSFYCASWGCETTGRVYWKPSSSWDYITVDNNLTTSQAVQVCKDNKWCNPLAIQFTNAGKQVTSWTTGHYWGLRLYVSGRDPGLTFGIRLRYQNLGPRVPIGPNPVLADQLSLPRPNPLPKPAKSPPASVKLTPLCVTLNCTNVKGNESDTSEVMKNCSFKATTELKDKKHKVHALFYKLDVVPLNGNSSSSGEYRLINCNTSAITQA

Env of AE.92TH023 virus = Env of AE.92TH023 virus (HIV-1); experiment: cell-based or functional assay
[5] = target: Env of TH023.6.I181L virus (HIV-1); experiment: cell-based or functional assay
[6] = target: Env of 427299.c12.KL.Q169K/I181L virus (HIV-1); experiment: cell-based or functional assay
[7] = target: Env of 427299.c12.Q169K virus (HIV-1); experiment: cell-based or functional assay
[8] = target: Env of 703357.2.I181L virus (HIV-1); experiment: cell-based or functional assay
[9] = target: Env of CM244NW.4.K169Q virus (HIV-1); experiment: cell-based or functional assay
[10] = target: Env of CM244NW.6.I181L virus (HIV-1); experiment: cell-based or functional assay
Env of 703357.c02 virus = Env of 703357.c02 virus (HIV-1); experiment: cell-based or functional assay
[11] = target: Env of 427299.c12.H81L virus (HIV-1); experiment: cell-based or functional assay
[12] = target: Env of 92TH023 K169Q virus (HIV-1); experiment: cell-based or functional assay
[13] = target: Env of 703357.2.Q169KI181L virus (HIV-1); experiment: cell-based or functional assay
Env of AE.CM244 virus = Env of AE.CM244 virus (HIV-1); experiment: cell-based or functional assay
Env of 427299.c12 virus = Env of 427299.c12 virus (HIV-1); experiment: cell-based or functional assay
[14] = target: Env of 703357.2.Q169KR170QI181L virus (HIV-1); experiment: cell-based or functional assay
[15] = target: Env of 703357.2.Q169K virus (HIV-1); experiment: cell-based or functional assay
[16] = target: Env of 703357.2.Q169KR170Q virus (HIV-1); experiment: cell-based or functional assay
[17] = target: T3, gp70 B.CaseA2 V1/V2/V169K (HIV-1 V1V2 on murine leukemia virus gp70); experiment: ELISA
T3 chain: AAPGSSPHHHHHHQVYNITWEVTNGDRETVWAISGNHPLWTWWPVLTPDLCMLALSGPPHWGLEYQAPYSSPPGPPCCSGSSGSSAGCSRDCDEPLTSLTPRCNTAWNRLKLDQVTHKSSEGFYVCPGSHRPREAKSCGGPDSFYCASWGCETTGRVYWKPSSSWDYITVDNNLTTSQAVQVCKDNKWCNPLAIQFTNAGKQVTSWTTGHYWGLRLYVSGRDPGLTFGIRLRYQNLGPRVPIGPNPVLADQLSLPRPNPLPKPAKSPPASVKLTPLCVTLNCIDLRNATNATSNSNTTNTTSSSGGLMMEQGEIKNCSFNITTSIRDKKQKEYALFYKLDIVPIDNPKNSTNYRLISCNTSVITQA

[18] = target: T4, gp70 B.CaseA2 V1/V2/V169K/E172V/E173H (HIV-1 V1V2 on murine leukemia virus gp70); experiment: ELISA
T4 construct: also called gp70 B.CaseA2 V1/V2 Mut3
T4 chain: T3 chain with E332V, Y333H

AE.A244 V1V2 Tags [19] = target: AE.A244 V1V2 Tags (HIV-1); experiment: ELISA; remark: listed apart in the source
C.1086 V1V2 Tags [20] = target: C.1086 V1V2 Tags (HIV-1); experiment: ELISA; remark: listed apart in the source
AE.A244 gp120 delta 11 [21] = target: T1, AE.A244 gp120 delta 11; experiment: ELISA; remark: listed apart in the source
gp70 C.1086 V1/V2 [22] = target: T2, gp70 C.1086 V1/V2; experiment: ELISA
AE.A244 V1V2 Tags [23] = target: AE.A244 V1V2 Tags (HIV-1); experiment: ELISA; remark: listed apart in the source

B1: CH59 (antibody, V domains shown)
VH: EVQLVESGGGLVQPGRSLRLSCAASGFTFDDGAMHWVRQAPGKGLEWVSGISWNSNIIAYADSVKGRFTISRDNAKNSLYLEMNSLRVEDTALYYCAKDSPRGELPLNYWGQGTLVTVSS
VL: SYELTQPPSVSVSPGQTARITCSGDALPKNYAYWYQQKSGQAPVLVIYEDSKRPSGIPERFSGSSSGTMATLTISGAQVEDEADYYCYSTDSSGNHRVFGGGTKLTVL
notes: also called mAb CH59
- EC50 (AE.A244 V1V2 Tags [1]): 0.014 nM
- EC50 (C.1086 V1V2 Tags [2]): 0.1 nM
- EC50 (AE.A244 gp120 delta 11 [3]): 0.087 nM
- EC50 (gp70 C.1086 V1/V2 [4]): 0.067 nM
- ID50 assayed in TZM-bl cells, TH023.6 (Env of AE.92TH023 virus): 1.92 µg/mL
- ID50 assayed in TZM-bl cells, TH023.6.I181L [5]: 5.33 µg/mL
- ID50 assayed in TZM-bl cells, 427299.c12.KL.Q169K/I181L [6]: > 50 µg/mL
- ID50 assayed in TZM-bl cells, 427299.c12.Q169K [7]: > 50 µg/mL
- ID50 assayed in TZM-bl cells, 703357.2.I181L [8]: > 50 µg/mL
- ID50 assayed in TZM-bl cells, CM244NW.4.K169Q [9]: > 50 µg/mL
- ID50 assayed in TZM-bl cells, CM244NW.6.I181L [10]: > 50 µg/mL
- ID50 assayed in TZM-bl cells, 703357.c02 (Env of 703357.c02 virus): > 50 µg/mL
- ID50 assayed in TZM-bl cells, 427299.c12.H81L [11]: > 50 µg/mL
- ID50 assayed in TZM-bl cells, TH023.6.K169Q [12]: > 50 µg/mL
- ID50 assayed in TZM-bl cells, 703357.2.Q169KI181L [13]: > 50 µg/mL
- ID50 assayed in TZM-bl cells, CM244.ec1 (Env of AE.CM244 virus): > 50 µg/mL
- ID50 assayed in TZM-bl cells, 427299.c12 (Env of 427299.c12 virus): > 50 µg/mL
- ID50 assayed in TZM-bl cells, 703357.2.Q169KR170QI181L [14]: > 50 µg/mL
- ID50 assayed in TZM-bl cells, 703357.2.Q169K [15]: > 50 µg/mL
- ID50 assayed in TZM-bl cells, 703357.2.Q169KR170Q [16]: > 50 µg/mL
- binding result [17]: no binding
- EC50 [18]: 0.02 µg/mL
- EC50 (AE.A244 V1V2 Tags [19]): 0.014 nM
- EC50 (C.1086 V1V2 Tags [20]): 0.1 nM
- EC50 (AE.A244 gp120 delta 11 [21]): 0.087 nM
- EC50 (gp70 C.1086 V1/V2 [22]): 0.067 nM
- EC50 (AE.A244 V1V2 Tags [23]): 0.0018 nM
